According to patent publication US20210032299A1 (Eli Lilly, published 2021):
Starred links: 1 amine or outer side, 2 acyl side, 3 side chain; linkers in the order of their positions; H or OH if unused. Non-standard residues stand in square brackets, D forms with d. Groups on a side chain read outwards from the residue. No end group written: not given here. *: point of attachment. C20 diacid = O=C(O)CCCCCCCCCCCCCCCCCCC(=O)*; αMePhe(2-F) = C[C@](N)(Cc1ccccc1F)C(=O)O; γGlu = O=C(O)[C@H](CCC(=O)[*:2])N[*:1]; 4Pal = N[C@@H](Cc1ccncc1)C(=O)O; αMeL = CC(C)C[C@](C)(N)C(=O)O; AEEA = NCCOCCOCC(=O)O; Aib = CC(C)(N)C(=O)O

T1: human glucose-dependent insulinotropic polypeptide (GIP) receptor (human, UniProt P48546 22-466)
T1 construct: whole, on cells; Assayed as crude membranes of stably transfected CHO cells; also called hGIPR; human GIP receptor
T1 sequence (looked up): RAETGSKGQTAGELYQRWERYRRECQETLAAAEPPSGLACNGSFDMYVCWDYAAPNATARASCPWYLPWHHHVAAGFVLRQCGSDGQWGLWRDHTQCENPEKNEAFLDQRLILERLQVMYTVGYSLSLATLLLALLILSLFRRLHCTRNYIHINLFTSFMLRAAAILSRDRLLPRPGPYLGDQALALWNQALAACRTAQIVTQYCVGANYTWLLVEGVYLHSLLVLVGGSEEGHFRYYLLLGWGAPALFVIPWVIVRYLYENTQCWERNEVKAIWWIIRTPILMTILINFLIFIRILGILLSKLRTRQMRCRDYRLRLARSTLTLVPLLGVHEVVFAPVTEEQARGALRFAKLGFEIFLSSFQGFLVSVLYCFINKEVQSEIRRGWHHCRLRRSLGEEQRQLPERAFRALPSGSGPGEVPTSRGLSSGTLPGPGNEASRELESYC

B1: Example 51 (peptide)
peptide: Y[Aib]EGT[αMePhe(2-F)]ISDYSI[αMeL]LDKK([AEEA-AEEA-γGlu-C20 diacid])HQ[Aib]DFVE[4Pal]LLAGGPSSGAPPPS-NH2
modifications: N-terminus assumed
SMILES: CC[C@H](C)[C@H](NC(=O)[C@H](CO)NC(=O)[C@H](Cc1ccc(O)cc1)NC(=O)[C@H](CC(=O)O)NC(=O)[C@H](CO)NC(=O)[C@@H](NC(=O)[C@](C)(Cc1ccccc1F)NC(=O)[C@@H](NC(=O)CNC(=O)[C@H](CCC(=O)O)NC(=O)C(C)(C)NC(=O)[C@@H](N)Cc1ccc(O)cc1)[C@@H](C)O)[C@@H](C)CC)C(=O)N[C@@](C)(CC(C)C)C(=O)N[C@@H](CC(C)C)C(=O)N[C@@H](CC(=O)O)C(=O)N[C@@H](CCCCN)C(=O)N[C@@H](CCCCNC(=O)COCCOCCNC(=O)COCCOCCNC(=O)CC[C@H](NC(=O)CCCCCCCCCCCCCCCCCCC(=O)O)C(=O)O)C(=O)N[C@@H](Cc1c[nH]cn1)C(=O)N[C@@H](CCC(N)=O)C(=O)NC(C)(C)C(=O)N[C@@H](CC(=O)O)C(=O)N[C@@H](Cc1ccccc1)C(=O)N[C@H](C(=O)N[C@@H](CCC(=O)O)C(=O)N[C@@H](Cc1ccncc1)C(=O)N[C@@H](CC(C)C)C(=O)N[C@@H](CC(C)C)C(=O)N[C@@H](C)C(=O)NCC(=O)NCC(=O)N1CCC[C@H]1C(=O)N[C@@H](CO)C(=O)N[C@@H](CO)C(=O)NCC(=O)N[C@@H](C)C(=O)N1CCC[C@H]1C(=O)N1CCC[C@H]1C(=O)N1CCC[C@H]1C(=O)N[C@@H](CO)C(N)=O)C(C)C
B2: Example 69 (peptide)
peptide: Y[Aib]EGTFISDYSI[αMeL]LDKK([AEEA-AEEA-γGlu-C20 diacid])HQ[Aib]DFVEYLLEGGPSSGAPPPS-NH2
modifications: N-terminus assumed
SMILES: CC[C@H](C)[C@H](NC(=O)[C@H](Cc1ccccc1)NC(=O)[C@@H](NC(=O)CNC(=O)[C@H](CCC(=O)O)NC(=O)C(C)(C)NC(=O)[C@@H](N)Cc1ccc(O)cc1)[C@@H](C)O)C(=O)N[C@@H](CO)C(=O)N[C@@H](CC(=O)O)C(=O)N[C@@H](Cc1ccc(O)cc1)C(=O)N[C@@H](CO)C(=O)N[C@H](C(=O)N[C@@](C)(CC(C)C)C(=O)N[C@@H](CC(C)C)C(=O)N[C@@H](CC(=O)O)C(=O)N[C@@H](CCCCN)C(=O)N[C@@H](CCCCNC(=O)COCCOCCNC(=O)COCCOCCNC(=O)CC[C@H](NC(=O)CCCCCCCCCCCCCCCCCCC(=O)O)C(=O)O)C(=O)N[C@@H](Cc1c[nH]cn1)C(=O)N[C@@H](CCC(N)=O)C(=O)NC(C)(C)C(=O)N[C@@H](CC(=O)O)C(=O)N[C@@H](Cc1ccccc1)C(=O)N[C@H](C(=O)N[C@@H](CCC(=O)O)C(=O)N[C@@H](Cc1ccc(O)cc1)C(=O)N[C@@H](CC(C)C)C(=O)N[C@@H](CC(C)C)C(=O)N[C@@H](CCC(=O)O)C(=O)NCC(=O)NCC(=O)N1CCC[C@H]1C(=O)N[C@@H](CO)C(=O)N[C@@H](CO)C(=O)NCC(=O)N[C@@H](C)C(=O)N1CCC[C@H]1C(=O)N1CCC[C@H]1C(=O)N1CCC[C@H]1C(=O)N[C@@H](CO)C(N)=O)C(C)C)[C@@H](C)CC
B3: Example 53 (peptide)
peptide: Y[Aib]EGTFISDYSI[αMeL]LDKK([AEEA-AEEA-γGlu-C20 diacid])HQ[Aib]DFVEYLLAGGPSSGAPPPS-NH2
modifications: N-terminus assumed
SMILES: CC[C@H](C)[C@H](NC(=O)[C@H](Cc1ccccc1)NC(=O)[C@@H](NC(=O)CNC(=O)[C@H](CCC(=O)O)NC(=O)C(C)(C)NC(=O)[C@@H](N)Cc1ccc(O)cc1)[C@@H](C)O)C(=O)N[C@@H](CO)C(=O)N[C@@H](CC(=O)O)C(=O)N[C@@H](Cc1ccc(O)cc1)C(=O)N[C@@H](CO)C(=O)N[C@H](C(=O)N[C@@](C)(CC(C)C)C(=O)N[C@@H](CC(C)C)C(=O)N[C@@H](CC(=O)O)C(=O)N[C@@H](CCCCN)C(=O)N[C@@H](CCCCNC(=O)COCCOCCNC(=O)COCCOCCNC(=O)CC[C@H](NC(=O)CCCCCCCCCCCCCCCCCCC(=O)O)C(=O)O)C(=O)N[C@@H](Cc1c[nH]cn1)C(=O)N[C@@H](CCC(N)=O)C(=O)NC(C)(C)C(=O)N[C@@H](CC(=O)O)C(=O)N[C@@H](Cc1ccccc1)C(=O)N[C@H](C(=O)N[C@@H](CCC(=O)O)C(=O)N[C@@H](Cc1ccc(O)cc1)C(=O)N[C@@H](CC(C)C)C(=O)N[C@@H](CC(C)C)C(=O)N[C@@H](C)C(=O)NCC(=O)NCC(=O)N1CCC[C@H]1C(=O)N[C@@H](CO)C(=O)N[C@@H](CO)C(=O)NCC(=O)N[C@@H](C)C(=O)N1CCC[C@H]1C(=O)N1CCC[C@H]1C(=O)N1CCC[C@H]1C(=O)N[C@@H](CO)C(N)=O)C(C)C)[C@@H](C)CC
B4: Example 54 (peptide)
peptide: Y[Aib]EGTFISDYSI[αMeL]LDKK([AEEA-AEEA-γGlu-C20 diacid])HQ[Aib]DFVEWLLAGGPSSGAPPPS-NH2
modifications: N-terminus assumed
SMILES: CC[C@H](C)[C@H](NC(=O)[C@H](Cc1ccccc1)NC(=O)[C@@H](NC(=O)CNC(=O)[C@H](CCC(=O)O)NC(=O)C(C)(C)NC(=O)[C@@H](N)Cc1ccc(O)cc1)[C@@H](C)O)C(=O)N[C@@H](CO)C(=O)N[C@@H](CC(=O)O)C(=O)N[C@@H](Cc1ccc(O)cc1)C(=O)N[C@@H](CO)C(=O)N[C@H](C(=O)N[C@@](C)(CC(C)C)C(=O)N[C@@H](CC(C)C)C(=O)N[C@@H](CC(=O)O)C(=O)N[C@@H](CCCCN)C(=O)N[C@@H](CCCCNC(=O)COCCOCCNC(=O)COCCOCCNC(=O)CC[C@H](NC(=O)CCCCCCCCCCCCCCCCCCC(=O)O)C(=O)O)C(=O)N[C@@H](Cc1c[nH]cn1)C(=O)N[C@@H](CCC(N)=O)C(=O)NC(C)(C)C(=O)N[C@@H](CC(=O)O)C(=O)N[C@@H](Cc1ccccc1)C(=O)N[C@H](C(=O)N[C@@H](CCC(=O)O)C(=O)N[C@@H](Cc1c[nH]c2ccccc12)C(=O)N[C@@H](CC(C)C)C(=O)N[C@@H](CC(C)C)C(=O)N[C@@H](C)C(=O)NCC(=O)NCC(=O)N1CCC[C@H]1C(=O)N[C@@H](CO)C(=O)N[C@@H](CO)C(=O)NCC(=O)N[C@@H](C)C(=O)N1CCC[C@H]1C(=O)N1CCC[C@H]1C(=O)N1CCC[C@H]1C(=O)N[C@@H](CO)C(N)=O)C(C)C)[C@@H](C)CC
B5: Example 63 (peptide)
peptide: Y[Aib]EGTFISDYSI[αMeL]LDKK([AEEA-AEEA-γGlu-C20 diacid])HQ[Aib]EFVEYLLEQGPSSGAPPPS-NH2
modifications: N-terminus assumed
SMILES: CC[C@H](C)[C@H](NC(=O)[C@H](Cc1ccccc1)NC(=O)[C@@H](NC(=O)CNC(=O)[C@H](CCC(=O)O)NC(=O)C(C)(C)NC(=O)[C@@H](N)Cc1ccc(O)cc1)[C@@H](C)O)C(=O)N[C@@H](CO)C(=O)N[C@@H](CC(=O)O)C(=O)N[C@@H](Cc1ccc(O)cc1)C(=O)N[C@@H](CO)C(=O)N[C@H](C(=O)N[C@@](C)(CC(C)C)C(=O)N[C@@H](CC(C)C)C(=O)N[C@@H](CC(=O)O)C(=O)N[C@@H](CCCCN)C(=O)N[C@@H](CCCCNC(=O)COCCOCCNC(=O)COCCOCCNC(=O)CC[C@H](NC(=O)CCCCCCCCCCCCCCCCCCC(=O)O)C(=O)O)C(=O)N[C@@H](Cc1c[nH]cn1)C(=O)N[C@@H](CCC(N)=O)C(=O)NC(C)(C)C(=O)N[C@@H](CCC(=O)O)C(=O)N[C@@H](Cc1ccccc1)C(=O)N[C@H](C(=O)N[C@@H](CCC(=O)O)C(=O)N[C@@H](Cc1ccc(O)cc1)C(=O)N[C@@H](CC(C)C)C(=O)N[C@@H](CC(C)C)C(=O)N[C@@H](CCC(=O)O)C(=O)N[C@@H](CCC(N)=O)C(=O)NCC(=O)N1CCC[C@H]1C(=O)N[C@@H](CO)C(=O)N[C@@H](CO)C(=O)NCC(=O)N[C@@H](C)C(=O)N1CCC[C@H]1C(=O)N1CCC[C@H]1C(=O)N1CCC[C@H]1C(=O)N[C@@H](CO)C(N)=O)C(C)C)[C@@H](C)CC

Tests used:
[1] = molecular target: T1, human glucose-dependent insulinotropic …; test: SPA, displacement of [125I]-GIP from hGIPR membranes, 0.1% bacitracin
human glucagon receptor = molecular target: T2, human glucagon receptor (human, UniProt P47871 26-477); test: SPA, displacement of [125I]-Gcg from hGcgR membranes, 0.1% bacitracin
T2 construct: whole, on cells; Assayed as crude membranes of stably transfected HEK293 cells; also called hGcgR; GcgR
Summary of the method: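 Binding buffer: 25 mM HEPES pH 7.4, 2.5 mM CaCl₂, 1 mM MgCl₂, 0.003% Tween-20, protease inhibitors without EDTA. Counted by scintillation after 12 h incubation/settling at room temperature. Four-parameter nonlinear fit; Kᵢ given as geometric mean ± SEM of independent replicates run on different days.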

human GLP-1 receptor = molecular target: T3, human GLP-1 receptor (human, UniProt P43220 24-463); test: SPA, displacement of [125I]-GLP-1 from hGLP-1R membranes, 0.1% bacitracin
T3 construct: whole, on cells; Assayed as crude membranes of stably transfected HEK293 cells; also called hGLP1R; hGLP-1R
Summary of the method: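 Binding buffer: 25 mM HEPES pH 7.4, 2.5 mM CaCl₂, 1 mM MgCl₂, 0.1% bacitracin, 0.003% Tween-20, protease inhibitors without EDTA. Four-parameter nonlinear regression; Kᵢ given as geometric mean ± SEM, n = independent replicates run on different days.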

T2 sequence (P47871 26-477): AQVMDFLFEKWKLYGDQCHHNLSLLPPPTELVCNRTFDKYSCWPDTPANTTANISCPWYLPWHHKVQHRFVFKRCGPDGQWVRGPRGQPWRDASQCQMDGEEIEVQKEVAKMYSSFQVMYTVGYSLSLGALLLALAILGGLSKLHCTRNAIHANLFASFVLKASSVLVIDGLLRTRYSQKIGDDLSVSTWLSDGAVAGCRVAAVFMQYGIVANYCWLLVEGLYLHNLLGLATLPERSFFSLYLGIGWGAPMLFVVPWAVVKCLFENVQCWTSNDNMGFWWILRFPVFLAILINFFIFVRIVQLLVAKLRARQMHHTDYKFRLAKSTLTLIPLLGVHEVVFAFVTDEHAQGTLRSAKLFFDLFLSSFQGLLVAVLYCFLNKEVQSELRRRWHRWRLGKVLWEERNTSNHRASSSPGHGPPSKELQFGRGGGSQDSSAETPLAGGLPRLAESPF

Row | Binder | Ki [1] [nM] | Ki (human glucagon receptor) [nM] | Ki (human GLP-1 receptor) [nM]
1 | B1 | 0.0386 | 26.7 | 54.1
2 | B2 | 0.0406 | 114 | 144
3 | B3 | 0.0184 | 152 | 62.9
4 | B4 | 0.0326 | 386 | 49.9
5 | B5 | 0.0248 | 185 | 327
